{
  "source": "paper PMC6934155",
  "key": {"[1]": {"molecular_target": "Rad3/Rad26 (ATR/ATRIP homolog in Schizosaccharomyces pombe) with TAPm-Rad3 (S. pombe) (UniProt Q02099)", "assay": "co-IP"}, "[2]": {"molecular_target": "Fatty acid synthase (FAS) of S. pombe, co-purified with Rad3/Rad26 (S. pombe) (UniProt Q9UUG0)"}},
  "data": [
    {"substance": "Apo-state fatty acid synthase (FAS) of S. pombe with Fas1-FLAG, Q9UUG0 1-2073; Q10289 1-1842", "values": [
      {"measurement": "fold of co-precipitation compared with control (CPT-treated cells)", "setting": "[1]", "result": 1.79, "unit": "times"},
      {"measurement": "fold of co-precipitation compared with control (MMS-treated cells)", "setting": "[1]", "result": 2.01, "unit": "times"}
    ]},
    {"substance": "Rad3/Rad26 (ATR/ATRIP homolog in Schizosaccharomyces pombe) with TAPm-Rad3, Q02099 1-2386; P36632 1-614", "values": [
      {"measurement": "specific (catalytic) activity of co-purified FAS relative to apo-state FAS", "setting": "[2]", "result": 23.3, "unit": "%"}
    ]}
  ]
}
